In the assay the target is T1, BRD7-His (bromodomain-containing protein 7 with His tag) (human, UniProt Q9NPI1 1-651).
T1 construct: Bromodomain-containing protein 7, human; source: HEK293T, transfected, in lysate; for the pull-down purified from HEK293T cell lysates
T1 sequence (looked up): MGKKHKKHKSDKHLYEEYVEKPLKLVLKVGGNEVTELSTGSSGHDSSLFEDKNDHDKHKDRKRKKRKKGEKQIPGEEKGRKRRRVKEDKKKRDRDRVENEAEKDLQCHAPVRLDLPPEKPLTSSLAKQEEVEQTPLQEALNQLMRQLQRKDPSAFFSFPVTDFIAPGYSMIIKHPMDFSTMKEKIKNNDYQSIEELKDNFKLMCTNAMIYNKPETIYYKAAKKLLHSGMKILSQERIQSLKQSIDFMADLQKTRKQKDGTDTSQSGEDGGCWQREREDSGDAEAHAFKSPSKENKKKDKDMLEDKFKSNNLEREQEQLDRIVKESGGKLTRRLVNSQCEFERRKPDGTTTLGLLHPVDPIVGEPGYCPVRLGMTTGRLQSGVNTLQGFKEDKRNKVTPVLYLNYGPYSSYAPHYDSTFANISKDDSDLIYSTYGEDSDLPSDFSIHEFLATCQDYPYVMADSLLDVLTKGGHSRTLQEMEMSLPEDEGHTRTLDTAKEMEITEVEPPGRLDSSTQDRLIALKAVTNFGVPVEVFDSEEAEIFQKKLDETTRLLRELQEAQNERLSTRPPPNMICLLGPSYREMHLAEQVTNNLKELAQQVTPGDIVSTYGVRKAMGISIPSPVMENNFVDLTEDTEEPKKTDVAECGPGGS
Kind of assay: co-IP; HEK293T cells co-transfected with FLAG-PPARα and BRD7-His or BRD9-His; lysate (0.3 M NaCl, 0.5% NP-40, pH 8.0) on anti-His tag antibody-Dynabeads Protein G, 2 h at room temperature; Western blot; in Fig. 5C the cells were treated with 30 μM WY-14643 and/or 40 μM BI-9564 for 48 h (interaction markedly attenuated). The note with it: partners not purified. (In general: In western blotting, separated proteins are transferred to a membrane and probed.)

B1: FLAG-PPARα (peroxisome proliferator-activated receptor α with 3×FLAG) (natural protein, human, UniProt Q07869 1-468, looked up)
chain: MVDTESPLCPLSPLEAGDLESPLSEEFLQEMGNIQEISQSIGEDSSGSFGFTEYQYLGSCPGSDGSVITDTLSPASSPSSVTYPVVPGSVDESPSGALNIECRICGDKASGYHYGVHACEGCKGFFRRTIRLKLVYDKCDRSCKIQKKNRNKCQYCRFHKCLSVGMSHNAIRFGRMPRSEKAKLKAEILTCEHDIEDSETADLKSLAKRIYEAYLKNFNMNKVKARVILSGKASNNPPFVIHDMETLCMAEKTLVAKLVANGIQNKEAEVRIFHCCQCTSVETVTELTEFAKAIPGFANLDLNDQVTLLKYGVYEAIFAMLSSVMNKDGMLVAYGNGFITREFLKSLRKPFCDIMEPKFDFAMKFNALELDDSDISLFVAAIICCGDRPGLLNVGHIEKMQEGIVHVLRLHLQSNHPDDIFLFPKLLQKMADLRQLVTEHAQLVQIIKKTESDAALHPLLQEIYRDMY
modifications: acetylated lysine residue(s), positions not given
notes: the sites are not mapped; source: HEK293T, transfected (pcDNA3.1), in lysate; for the pull-down captured from lysate on anti-FLAG antibody-Dynabeads Protein G and washed; not shown: 3×FLAG, N-terminal, kept
Consider B1, for which the binding result was “binds”.

These data come from PMC12444171, “Chromatin remodeler BRD9 represses transcription of PPARα target genes, including CPT1A to suppress lipid metabolism” (Journal of Lipid Research, 2025).
